Molecular target: vitronectin (UniProt P04004)
UniProt P04004, sequence (P04004 20-478): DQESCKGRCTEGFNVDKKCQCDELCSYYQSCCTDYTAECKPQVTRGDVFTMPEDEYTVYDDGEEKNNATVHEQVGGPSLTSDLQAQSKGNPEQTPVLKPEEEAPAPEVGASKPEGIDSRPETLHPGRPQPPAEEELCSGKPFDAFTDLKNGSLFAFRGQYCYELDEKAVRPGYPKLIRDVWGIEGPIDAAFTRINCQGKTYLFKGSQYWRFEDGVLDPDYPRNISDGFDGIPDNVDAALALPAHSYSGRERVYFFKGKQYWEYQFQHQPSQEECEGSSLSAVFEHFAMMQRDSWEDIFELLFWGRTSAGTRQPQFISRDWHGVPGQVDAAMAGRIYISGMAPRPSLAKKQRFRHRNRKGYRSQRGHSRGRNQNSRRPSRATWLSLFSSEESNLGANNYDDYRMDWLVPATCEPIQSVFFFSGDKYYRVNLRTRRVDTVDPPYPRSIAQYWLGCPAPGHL

adhesion of V3B3S11aa cells on vitronectin (C1 null transfectant cells without avb3: 6.52%) [%] | haptotactic migration of V3B3S11aa cells towards vitronectin (C1 cells: 2.01%) [%] | haptotactic migration of V3B3S11aa cells towards vitronectin in the presence of LM609 [%] | inhibition of adhesion of V3B3S11aa cells to vitronectin by LM609 (anti-avb3 blocking antibody) [%] | adhesion of V3B3 cells on vitronectin (C1 null transfectant cells without avb3: 6.52%) [%] | haptotactic migration of V3B3 cells towards vitronectin (C1 cells: 2.01%) [%] | haptotactic migration of V3B3 cells towards vitronectin in the presence of LM609 [%] | inhibition of adhesion of V3B3 cells to vitronectin by LM609 (anti-avb3 blocking antibody) [%] | Substance
39.5 | 21.8 | 0 | 26 |  |  |  |  | avb3 integrin heterodimer with the b3 chimaeric mutant whose cytoplasmic domain is extended by the C-terminal 11 amino acids of b6 (on V3B3S11aa squamous cell carcinoma cells) (from UniProt P06756 31-1048; P05106 27-788; P18564 778-788) (receptor)
 |  |  |  | 38.6 | 20.3 | 3.92 | 30.6 | avb3 integrin heterodimer, wild type b3 (on V3B3 squamous cell carcinoma cells) (from UniProt P06756 31-1048; P05106 27-788) (receptor)
